Reference: US20260116966A1 (KEYMED BIOSCIENCES CHENGDU, published 2026)

T1: Cynomolgus GPRC5D (Cynomolgus, UniProt Q9NZD1 1-343 (human entry))
T1 construct: Full length, on stably transfected cells (HEK293-cyGPRC5D, CHO-cyGPRC5D); also called cyGPRC5D
T1 chain: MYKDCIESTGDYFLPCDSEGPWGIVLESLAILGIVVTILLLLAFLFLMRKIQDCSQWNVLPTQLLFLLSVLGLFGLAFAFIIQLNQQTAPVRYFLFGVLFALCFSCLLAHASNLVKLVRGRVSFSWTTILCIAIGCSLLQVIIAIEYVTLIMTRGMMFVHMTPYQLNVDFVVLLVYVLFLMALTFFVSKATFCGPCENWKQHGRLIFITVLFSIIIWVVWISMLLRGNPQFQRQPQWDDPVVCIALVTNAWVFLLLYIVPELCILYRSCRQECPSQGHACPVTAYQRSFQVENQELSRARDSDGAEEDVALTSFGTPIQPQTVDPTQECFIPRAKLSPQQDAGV


Assays:
human GPRC5D [1] = molecular target: T2, human GPRC5D (human, UniProt Q9NZD1 1-345); assay: cell-based or functional assay
T2 sequence (Q9NZD1 whole entry): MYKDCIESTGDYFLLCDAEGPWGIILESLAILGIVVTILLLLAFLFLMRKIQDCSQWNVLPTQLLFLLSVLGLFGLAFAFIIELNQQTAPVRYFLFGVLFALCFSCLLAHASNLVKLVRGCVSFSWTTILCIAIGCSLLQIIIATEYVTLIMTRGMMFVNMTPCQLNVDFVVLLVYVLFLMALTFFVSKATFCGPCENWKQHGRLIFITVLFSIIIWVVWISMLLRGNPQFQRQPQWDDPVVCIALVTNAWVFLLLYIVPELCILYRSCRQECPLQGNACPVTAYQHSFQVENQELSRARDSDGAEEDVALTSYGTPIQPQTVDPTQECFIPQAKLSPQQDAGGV

human GPRC5D [2] = molecular target: T2, human GPRC5D; assay: flow cytometry, MM.1R cells
Description: The cell suspension was adjusted to a concentration of 5×10⁵ cells/mL, and 100 μL per well was added to a 96-well U-shaped plate, centrifuged at 300 g for 5 min. The supernatant was discarded. 100 μL per well of serially diluted antibody was added (initial concentration: 200 nM, 3-fold dilution, 10 gradients), and incubated at 4° C. for 60 min. The primary antibody was washed away, and 50 μL/well Alexa Fluro647 labeled goat anti-human IgG FC (1:300 dilution) was added, and incubated for 20 min. After washing once, 50 μL/well of PI was added, incubated for 5 min, and detected by flow cytometry.

Cynomolgus GPRC5D = molecular target: T1, Cynomolgus GPRC5D; assay: flow cytometry, CHO-cyGPRC5D cells
Description: (§1) The binding of the antibodies to human and Cynomolgus GPRC5D stably transfected cells was detected by flow cytometry. […] Then, 100 μl/well of the cell suspension was added to a 96-well U-shaped plate, and centrifuged at 300 g for 5 min. The supernatant was discarded. 100 μL per well of serially diluted antibody was added (initial concentration: 200 nM, 3-fold dilution, 12 gradients), and incubated at 4° C. for 45 min. The secondary antibody 50 μL/well of Alexa Fluro647 labeled goat anti-human IgG Fc (1:300 dilution) was added, incubated on ice for 45 min, and detected by flow cytometry.

human GPRC5D [3] = molecular target: T2, human GPRC5D; assay: flow cytometry on CHO-hGPRC5D cells
Description: as §1

Binder | TDCC EC50 (pM), MM.1R (human GPRC5D [1]) [pM] | EC50 (human GPRC5D [2]) [nM] | Maximum fluorescence intensity (MFI, 200 nM) (human GPRC5D [2]) [MFI] | binding result (Cynomolgus GPRC5D) | binding result (human GPRC5D [3])
2E1 × CD3 GPRC5D×CD3 κλ bispecific antibody (bispecific antibody, human IgG4, V domains shown, Human IgG4 knob-into-hole Fc with Ser228Pro, Leu235Glu, Pro329Ala; kappa light chain on the GPRC5D arm, lambda on the CD3 arm) VH 1: QVQLVQSGAEVKKPGSSVKVSCKASGYTFTRYWMHWVREAPGQGLEWMGEFNPSNGRINYNEKFQGRVTLTIDKSSSTAYMELSSLRSEDTAVYYCTRGFAYWGQGTLVTVSS VL 1: EIVLTQSPATLSLSPGERATLSCRASSTVSYIHWYQKKPGQAPRRLIYDTSKLASGIPARFSGSGSGTDYTLTISSLEPEDFAVYYCQQWTTNPWTFGGGTKVEIK VH 2: EVQLVESGGGLVQPGGSLRLSCAASGFTFNTYAMNWVRKAPGKGLEWVGRIRSKYNNYATYYADSVKDRFTISRDDSKNSLYLQMNSLKTEDTAVYYCVRHGNFGNSYVSWFAYWGQGTLVTVSS VL 2: QAVVTQEPSLTVSPGGTVTLTCRSSTGAVTTSNYANWVQEKPGQAPRGLIGGTNKRAPWTPARFSGSLLGGKAALTITGAQAEDEAEYYCVLWYSNLWVFGGGTKLTVL | 161 | 6.88 | 65700 |  | 
anti-GPRC5D chimeric antibody 10B1 (antibody, V domains shown) VH: QVQLQQSGAELARPGASVKMSCKASGYIFTSYTMYWVKQRPGQGLEWIGYINPSSGYTNYNQKFKDKATLTADKSSSTAYMQLSSLTSEDSAVYYCARWGGNERLYYYAMDYWGQGTSVTVSS VL: QIVLTQSPAIMSASPGEKVTITCSASSSVSYMYWFQQKPGTSPKLWIYGTSNLASGVPARFSGSGSGTSYSLTISRMEAEDAATYYCQQRSSYPLTFGAGTKLELK |  |  |  | binds | binds
anti-GPRC5D chimeric antibody 10E8 (antibody, V domains shown) VH: EVQLQQSGPELVKPGASMKISCKASGYSFTGYTMNWVKQRHGKNLEWIGLINPYNGGTSYNQKFKGKATLTVDKSSSTAYMELLSLTSEDSAVYYCARLPIRNGMDYWGQGTSVTVSS VL: DIVLTQSPATLSVTPGDSVSLSCRASQSISNNLHWYQQKSHESPRLLVKFASLSISGIPSRFSGSGSGTDFTLSINSVETEDFGMYFCQQSNSWPQTFGGGTKLEIK |  |  |  | binds | binds
anti-GPRC5D chimeric antibody 22C1 (antibody, V domains shown) VH: EVQLQQSGPELVKPGTSMKISCKASGYSFTGYTMNWVKQSHGKNLEWIGLINPYNGGSNYNLKFKGKATLTVDKSSNTAYMELLSLTSEDSAVYYCARWGLRNAMDYWGQGTSVTVSS VL: DIVVTQSPATLSVTPGDSVSLSCRASQSISNNLHWFQQKSHESPRLLIKYASQSISGIPSRFSGSGSGTDFTLSINSVETEDFGMYFCQQSNSWPQTFGGGTKLEIK |  |  |  | binds | binds
anti-GPRC5D chimeric antibody 18C3 (antibody, V domains shown) VH: EVQLVESGGDLVKPGGSLKLSCAASGFTFSSYGMSWVRQTPDKRLEWVATISSGGSYTYYPDSVKGRFTISRDNAKNTLYLQMSSLKSEDTAMYYCARHEARATFDYWGQGTTLTVSS VL: DIVMTQAAPSVPVTPGESVSISCRSSKSLLHSNGNTYLYWFLQRPGQSPQLLIYRMSNLASGVPDRFSGSGSGTAFTLRISRVEAEDVGVYYCMQHLEYPFTFGSGTKLEIK |  |  |  | binds | binds
anti-GPRC5D chimeric antibody 8C2 (antibody, V domains shown) VH: EVQLVESGGDLVKPGGSLKLSCAASGFTFSSYGMSWVRQTPDKRLEWVATISSGGSYTYYPDSVKGRFTISRDNAKNTLYLQMSSLKSEDTAMYYCARHGGSSSYVMDYWGQGTSVTVSS VL: DIVMTQAAPSVPVTPGESVSISCRSSKSLLHSNGNTYLYWFLQRPGQSPQLLIYRMSNLASGVPDRFSGSGSGTAFTLRISRVEAEDVGVYYCMQHLEYPFTFGSGTKLEIK |  |  |  | binds | binds
anti-GPRC5D chimeric antibody 18E7 (antibody, V domains shown) VH: EVQLQQSGPELVKPGASVKMSCKASEYTFTNYVMYWVKQKPGQGLEWIGYINPYNDGTKYNEKFKGKATLTSDKSSSTAYMELSSLTSEDSAVYYCVRGGMLTTRSLFAYWGQGTLVTVSA VL: DIQMTQSPSSLSASLGERVSLTCRASQRISGYLSWLQQKPDGTIKRLIYAASTLDSGVPKRFSGSRSGSDYSLTISSLESEDFADYYCLQYASYPPTFGGGTKLEIK |  |  |  | binds | binds
anti-GPRC5D chimeric antibody 15H5 (antibody, V domains shown) VH: EVQLQQSGPELVKPGASVKMSCMASGYTFTSYVMYWVKQKPGQGLEWIGYINPYNDGTKYNEKFKGKATLTSDKSSSTAYMELSSLTSEDSAVYYCARGGMLTTRSLFVYWGHGTLVTVSA VL: DIQMTQSPSSLSASLGERVSLTCRASQEISGYLSWLQQKPDGTIKRLIYAASTLDSGVPKRFSGSRSGSDYSLTISSLESEDFADYYCLQYASYPPTYGGGTKLEIK |  |  |  | binds | binds

Continued, values first:

TDCC EC50 (pM), MM.1R (human GPRC5D [1]) [pM] | EC50 (human GPRC5D [2]) [nM] | Maximum fluorescence intensity (MFI, 200 nM) (human GPRC5D [2]) [MFI] | binding result (Cynomolgus GPRC5D) | binding result (human GPRC5D [3]) | Binder
 |  |  | binds | binds | anti-GPRC5D chimeric antibody 15A6 (antibody, V domains shown) VH: EVQLQQSGPELVKPGASVKMSCKASGYTFTNYVMYWVKQKPGQVLEWIGYINPYNDGTKYNEKFTGKATLTSDKSSSTAYMELSSLTSEDSAVYYCARGGMLTTRSLFVYWGQGTLVTVSA VL: DIQMTQSPSSLSASLGERVSLTCRASQEISGYFSWLQQKPDGTIKRLIYAASTLDSGVPKRFSGSRSGSDYSLTISSLESEDFADYYCLQYASYPPTFGGGTKLEIK
 |  |  | binds | binds | anti-GPRC5D chimeric antibody 14D1 (antibody, V domains shown) VH: EVQLQQSGPDLVKPGASVKMSCKASGYKFTSYVMYWVKQKTGQGLEWIGYINPYNDGTKYNEKFKGKATLTSDKSSSTAYMEFSSLTSEDSAVYYCVRGGMLTTRSLFAYWGQGTLVTVSA VL: DIQMTQSPSSLSASLGERVSLTCRASQEISGYFSWLQQKPDGTIKRLIYAASTLDSGVPKRFSGSRSGSDYSLTISSLESEDFADYYCLQYASYPPTFGGGTKLEIK
 |  |  | binds | binds | anti-GPRC5D chimeric antibody 19E2 (antibody, V domains shown) VH: EVQLQQSGPELVKPGASVKMSCKASEYTFTNYVMYWVKQKPGQGLEWIGYINPYNDGTKYNEKFKGKATLTSDKSSSTAYMELSSLTSEDSAVYYCVRGGMLTTRSLFAYWGQGTLVTVSA VL: DIQMTQSPSSLSASLGERVSLTCRASQRISGYLSWLQQKPDGTIKRLIYAASTLDSGVPKRFSGSRSGSDYSLTISSLESEDFADYYCLQYANYPPTFGGGTKLEIK
 |  |  | binds | binds | anti-GPRC5D chimeric antibody 17D12 (antibody, V domains shown) VH: EVQLQQSGPELVKPGASVKMSCKASGYTFTSYVMYWVKQKPGQVLEWIGYINPYNDGTKYNERFTGKATLTSDKSSSTAYMELSSLTSEDSAVYYCARGGMLTTRSLFLYWGQGTLVTVSA VL: DIVMSQSPSSLSASLGERVSLTCRASQEISGYFSWLQQKPDGTIKRLIYAASTLDSGVPKRFSGSRSGSDYSLTISSLESEDFADYYCLQYASYPPTFGGGTKLEIK
 |  |  | binds | binds | anti-GPRC5D chimeric antibody 12A4 (antibody, V domains shown) VH: EVQLQQSGPELVKPGASVKMSCKASEYTFTNYVMYWVKQKPGQGLEWIGYINPYNDGTKYNEKFKGKATLTSDKSSSTAYMELSSLTSEDSAVYYCVRGGMLTTRSLFTYWGQGTLVTVSA VL: DIQMTQSPSSLSASLGERVSLTCRASQRISGYLSWLQQKPDGTIKRLIYAASTLDSGVPKRFSGSRSGSDYSLTISSLESEDFADYYCLQYASYPPTFGGGTKLEIK
 |  |  | binds | binds | anti-GPRC5D chimeric antibody 1C1 (antibody, V domains shown) VH: QAYLQQSGAELVRSGASVKMSCKASGYTFTSYNMHWVKQTPGQGLEWIGYIYPGNGGTNYNQKFKAKATLTADTSSSTAYMQISSLTSEDSAVYFCARGYGYRYWYFDVWGAGTTVTVSS VL: NIVLTQSPAIMSASPGEKVTMTCSASSSVRFMHWYQQKSGTSPKRWIYDTSKVASGVPARFSGSGSGTSYSLTIRSMEAEDAATYYCQQWSSNPLTFGAGTKLELK
